How the values were obtained:
Assay in all cases: SDS-PAGE and Western blot of whole cells (oligomer bands that withstand SDS); 1 OD600 of induced cells in SDS sample buffer, 4~12% SDS-PAGE, PVDF, anti-Flag tag antibody; cells treated with proteinase K or not; positions of monomeric, dimeric and trimeric forms called putative
[1] = molecular target: SadA^644 fused with Flag×3 and the UreB epitopes UreB158–172aa and UreB349–363aa (from pSadBA^644-FU2) (Salmonella typhimurium | Helicobacter pylori SS1) (UniProt P69996)
[2] = molecular target: SadA^877 fused with Flag×3 and the UreB epitopes UreB158–172aa and UreB349–363aa (from pSadBA^877-FU2) (Salmonella typhimurium | Helicobacter pylori SS1) (UniProt P69996)
[3] = molecular target: SadA^877 fused with N-terminal Flag×3-mScarlet (from pSadBA^877-FM) (Salmonella typhimurium)
[4] = molecular target: SadA^1171 fused with Flag×3 and the UreB epitopes UreB158–172aa and UreB349–363aa (from pSadBA^1171-FU2) (Salmonella typhimurium | Helicobacter pylori SS1) (UniProt P69996)
[5] = molecular target: SadA^1292 fused with Flag×3 and the UreB epitopes UreB158–172aa and UreB349–363aa (from pSadBA^1292-FU2) (Salmonella typhimurium | Helicobacter pylori SS1) (UniProt P69996)
[6] = molecular target: SadA^1292 fused with N-terminal Flag×3-UreBm-mScarlet (from pSadBA^1292-FUM) (Salmonella typhimurium | Helicobacter pylori SS1) (UniProt P69996)
[7] = molecular target: SadA^1292 fused with N-terminal Flag×3-mScarlet (from pSadBA^1292-FM) (Salmonella typhimurium)

Substance: SadA^644 fused with Flag×3 and the UreB epitopes UreB158–172aa and UreB349–363aa (from pSadBA^644-FU2) (from UniProt P69996)
- stoichiometry N [1]: 3

Substance: SadA^877 fused with Flag×3 and the UreB epitopes UreB158–172aa and UreB349–363aa (from pSadBA^877-FU2) (from UniProt P69996)
- stoichiometry N [2]: 3

Substance: SadA^877 fused with N-terminal Flag×3-mScarlet (from pSadBA^877-FM)
- stoichiometry N [3]: 3

Substance: SadA^1171 fused with Flag×3 and the UreB epitopes UreB158–172aa and UreB349–363aa (from pSadBA^1171-FU2) (from UniProt P69996)
- stoichiometry N [4]: 3

Substance: SadA^1292 fused with Flag×3 and the UreB epitopes UreB158–172aa and UreB349–363aa (from pSadBA^1292-FU2) (from UniProt P69996)
- stoichiometry N [5]: 3

Substance: SadA^1292 fused with N-terminal Flag×3-UreBm-mScarlet (from pSadBA^1292-FUM) (from UniProt P69996 111-377)
- stoichiometry N [6]: 3

Substance: SadA^1292 fused with N-terminal Flag×3-mScarlet (from pSadBA^1292-FM)
- stoichiometry N [7]: 3

Source: publication PMC11054257
